Data as given in patent US10689429B2, “Double-acylated GLP-1 compounds” (Novo Nordisk A/S, priority 2014, dated 2020).
Like-named read-outs stand apart in the source and are kept apart here. *1 amine or outer side, *2 acyl side, *3 side chain or, on linkers, in order; H or OH if unused. Where a SMILES comes first, the peptide text is derived from it. Where no end group is shown, it is not given here. Side-chain parts run from the residue outwards. [ ]: non-standard residue; d: D form. The star is where a group is joined. Undecanoyl(11-OPh(4-COOH)) = O=C(O)c1ccc(OCCCCCCCCCCC(=O)*)cc1; Decanoyl(10-O(3-COOH-Ph)) = O=C(O)c1cccc(OCCCCCCCCCC(=O)*)c1; γGlu = O=C(O)[C@H](CCC(=O)[*:2])N[*:1]; C14 diacid = O=C(O)CCCCCCCCCCCCC(=O)*; AEEA = NCCOCCOCC(=O)O; Aib = CC(C)(N)C(=O)O

How the values were obtained:
human GLP-1 receptor [1] = target: T1, human GLP-1 receptor (Homo sapiens, UniProt P43220); experiment: In vitro potency, CRE luciferase reporter gene assay in BHK cells expressing the human GLP-1 receptor; assay type: cell-based; conditions: average of duplicates;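 also: firefly luciferase luminescence read after 3 h incubation at 37 °C, compounds tested in an eight-point series from 0.01 pM to 100 nM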
T1 construct: expressed in transfected cells; host or cells: membranes from BHK cells, parent line BHKTS13, clone FCW467-12A
Target sequence in this assay (P43220 24-463): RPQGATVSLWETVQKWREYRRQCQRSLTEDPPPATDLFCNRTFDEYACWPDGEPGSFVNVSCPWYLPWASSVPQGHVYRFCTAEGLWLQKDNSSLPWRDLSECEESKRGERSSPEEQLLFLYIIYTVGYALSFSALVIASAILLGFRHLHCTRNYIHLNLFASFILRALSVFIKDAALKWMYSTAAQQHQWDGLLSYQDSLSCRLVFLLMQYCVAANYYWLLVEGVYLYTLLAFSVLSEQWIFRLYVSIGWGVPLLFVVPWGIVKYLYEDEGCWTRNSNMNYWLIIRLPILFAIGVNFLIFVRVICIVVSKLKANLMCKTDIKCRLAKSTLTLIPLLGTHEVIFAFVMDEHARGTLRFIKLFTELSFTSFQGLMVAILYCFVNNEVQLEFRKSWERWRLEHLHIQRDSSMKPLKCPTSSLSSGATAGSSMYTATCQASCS

[2] = Pharmacokinetic study in mini pigs after i.v. administration; assay type: in vivo; conditions: female, Göttingen, pig, plasma, iv, 2 nmol/kg; read-out: Minipig iv PK, t½ (converted)
Method: The purpose of this study is to determine the protraction in vivo of the GLP-1 derivatives after i.v. administration to mini pigs, i.e. the prolongation of their time in the body and thereby their time of action. This was done in pharmacokinetic (PK) studies, where the terminal half-life of the derivative in question was determined. By terminal half-life is generally meant the period of time it takes to halve a certain plasma concentration, measured after the initial distribution phase.
Female Göttingen mini pigs obtained from Ellegaard Göttingen Minipigs (Dalmose, Denmark) at approximately 5 months of age and weighing approximately 10 kg were used in the studies. The mini pigs were housed in pens with straw as bedding, four to six together in each pen and fed restrictedly once or twice daily with Altromin 9023 mini pig diet (Chr. Petersen A/S, DK-4100 Ringsted). The pigs were used for repeated pharmacokinetic studies with a suitable wash-out period between successive GLP-1 derivative dosings. An acclimatisation period of 1 week was allowed during which time the mini pigs were trained to be fixated on the back for blood sampling and in slings for i.v. dosing. All handling, dosing and blood sampling of the animals was performed by trained and skilled staff.
The GLP-1 derivatives were dissolved in 50 mM sodium phosphate, 70 mM sodium chloride, 0.05% tween 80, pH 7.4 to a concentration of approximately 20 nmol/ml. Intravenous injections (the volume corresponding to usually 2 nmol/kg, for example 0.1 ml/kg) of the compounds were given as intravenous injections via a Venflon inserted in an ear vein, while the animals were placed un-anaesthetised in a sling. The dose volume was 0.1 ml/kg, and blood was sampled at predefined time points for up till 13 days post dosing (samples were taken with a syringe from a jugular vein). Blood samples (for example 0.8 ml) were collected in EDTA buffer (8 mM) and then centrifuged at 4° C. and 2000 G for 10 minutes.
Individual plasma concentration-time profiles were analysed by a non-compartmental model in WinNonlin v. […] 6.2 or 6.3 (Pharsight Inc., Mountain View, Calif., USA), or other relevant software for PK analysis, and the resulting terminal half-lives determined.

[3] = Pharmacokinetic studies in Beagle dogs (i.v. and p.o.); assay type: in vivo; conditions: dog, plasma, iv, 2 nmol/kg, read-out: Beagle dogs iv PK, t½ (converted)
Method: Pharmacokinetic (PK) studies in Beagle dogs were conducted in order to determine a) the protraction of the GLP-1 derivatives after i.v. administration, and b) the bioavailability of the GLP-1 derivatives after p.o. administration.
By protraction is meant the prolongation of the time in the body and thereby the time of action of the GLP-1 derivatives. This was done in pharmacokinetic (PK) studies, where the terminal half-life of the derivative in question was determined. By terminal half-life is generally meant the period of time it takes to halve a certain plasma concentration, measured after the initial distribution phase.
The dogs were housed in pens (12 hours light: 12 hours dark) with softwood based granules as bedding, two together in each pen and fed restrictedly once daily with […] ™ Struvite Management Diet (Dechra Veterinary Products, UK). Exercise was permitted daily, whenever possible. The dogs were used for repeated pharmacokinetic studies with a suitable wash-out period between successive GLP-1 derivative dosings. An acclimatisation period of 4 weeks was allowed during which time the dogs were trained. All handling, dosing and blood sampling of the animals was performed by trained and skilled staff. The dogs were fasted overnight before dosing and from 0 to 4 h after dosing, but had ad libitum access to water during the whole period.
The dogs were housed in social groups (12 hours light: 12 hours dark), and fed individually and restrictedly once daily with Royal Canin Medium Adult dog (Royal Canin Products, China Branch, or Brogaarden A/S, Denmark). Exercise and group social was permitted daily, whenever possible. The dogs were used for repeated pharmacokinetic studies with a suitable wash-out period between successive GLP-1 derivative dosings. An appropriate acclimatisation period was given prior to initiation of the first pharmacokinetic study. All handling, dosing and blood sampling of the animals was performed by trained and skilled staff. Before the studies the dogs were fasted overnight and from 0 to 4 h after dosing. […]

human GLP-1 receptor [4] = target: T1, human GLP-1 receptor; experiment: GLP-1 receptor binding, competitive 125I-GLP-1 SPA binding assay on isolated membranes; conditions: low HSA (max. 0.001% final assay concentration)
[5] = Pharmacodynamic (PD) study in pigs, effect on food intake; assay type: in vivo
Method: The purpose of this experiment is to investigate the effect of the GLP-1 derivatives on food intake in pigs. This was done in a pharmacodynamic (PD) study as described below, in which food intake was measured from 1 to 4 days after administration of a single dose of the GLP-1 derivative, as compared to a vehicle-treated control group.
Female Landrace Yorkshire Duroc (LYD) pigs or Large White hybrid, approximately 3 months of age, weighing approximately 30-35 kg were used (n=3-4 per group). The animals were housed in a group for approximately 1 week during acclimatisation to the animal facilities. During the experimental period the animals were placed in individual pens at least 2 days before dosing and during the entire experiment for measurement of individual food intake.
The animals were fed ad libitum with pig fodder (Svinefoder Danish Top or HRC Sow and Weaner Diet) at all times both during the acclimatisation and the experimental period. Food intake was monitored on line by logging the weight of fodder every 15 minutes using the Mpigwin system (Ellegaard Systems, Faaborg, Denmark). Alternatively fodder was offered in the morning each day, and availability for the full 24-hour period was ensured. Any uneaten fodder was removed and weighed (manually) on the following morning, and replaced with fresh fodder.
The GLP-1 derivatives were dissolved in a phosphate buffer (50 mM sodium phosphate, 70 mM sodium chloride, 0.05% tween 80, pH 7.4) at concentrations of approximately 120 nmol/ml corresponding to doses of 3 nmol/kg. The phosphate buffer served as vehicle.
On the last day of each study, 2 or 4 days after dosing, a blood sample for measurement of plasma exposure of the GLP-1 derivative was taken from the heart in anaesthetised animals.
Food intake was calculated in 24 h intervals (0-24 h, 24-48 h, 48-72 h and 72-96 h).

human GLP-1 receptor [6] = target: T2, human GLP-1 receptor (human, UniProt P43220); experiment: displacement of [125I]-GLP-1-(7-36)NH2 from membranes with human GLP-1 receptor, SPA, low HSA (0.001%)
Method: (§1) Each derivative is added in a series of concentrations to isolated membranes containing the human GLP-1 receptor and displacement of the labelled ligand is monitored. The receptor binding is reported as the concentration at which half of the labelled ligand is displaced from the receptor, the $IC50$ value.
(§2) For the receptor binding assay in the presence of low HSA (0.001%) 50 μl of the assay buffer was added to each well of an assay plate. […] For the receptor binding assay in the presence of high HSA (2.0%) 50 μl of the 8% albumin stock was added to each well of an assay plate. […] Cell membrane aliquots were thawed and diluted to their working concentration. Fifty μl were added to each well in the assay plate. […] WGA SPA beads were suspended in assay buffer at 20 mg/ml. The suspension was diluted to 10 mg/ml in assay buffer just prior to addition to the assay plate. Fifty μl were added to each well in the assay plate. […] A 25 μl aliquot was reserved for measuring total counts/well. […] The assay plate was incubated for 2 h at 30° C. […] The assay plate was centrifuged for 10 min. […] The assay plate was read in a Packard TopCount NXT instrument.

human GLP-1 receptor [7] = target: T2, human GLP-1 receptor; experiment: displacement of [125I]-GLP-1-(7-36)NH2 from membranes with human GLP-1 receptor, SPA, high HSA (2.0%)
Method: as §1, §2

human GLP-1 receptor [8] = target: T2, human GLP-1 receptor
Target sequence in this assay (P43220 24-463): as above

[9] = EC50/pM (1% HSA), 1% HSA final assay concentration
[10] = 0% HSA, read-out: EC50/pM (0% HSA)

Molecule	EC50 (human GLP-1 receptor [1]; [9])	half-life [2]	IC50 (human GLP-1 receptor [6])	IC50 (human GLP-1 receptor [7])	EC50/pM (0% HSA) (human GLP-1 receptor [8])	EC50/pM (1% HSA) (human GLP-1 receptor [8])	further results
CC[C@H](C)[C@H](NC(=O)[C@H](Cc1ccccc1)NC(=O)[C@H](CCC(=O)O)NC(=O)[C@H](CCCNC(=N)N)NC(=O)[C@H](C)NC(=O)[C@H](C)NC(=O)[C@H](CCC(N)=O)NC(=O)[C@H](CCC(=O)O)NC(=O)[C@H](CCC(=O)O)NC(=O)[C@H](CC(C)C)NC(=O)[C@H](Cc1ccc(O)cc1)NC(=O)[C@H](CO)NC(=O)[C@H](CO)NC(=O)[C@@H](NC(=O)[C@H](CC(=O)O)NC(=O)[C@H](CO)NC(=O)[C@@H](NC(=O)[C@H](Cc1ccccc1)NC(=O)[C@@H](NC(=O)CNC(=O)[C@H](CCC(=O)O)NC(=O)C(C)(C)NC(=O)[C@@H](N)Cc1c[nH]cn1)[C@@H](C)O)[C@@H](C)O)C(C)C)C(=O)N[C@@H](C)C(=O)N[C@@H](Cc1c[nH]c2ccccc12)C(=O)N[C@@H](CC(C)C)C(=O)N[C@H](C(=O)N[C@@H](CCCNC(=N)N)C(=O)NCC(=O)N[C@@H](CCCCNC(=O)COCCOCCNC(=O)COCCOCCNC(=O)CC[C@H](NC(=O)CCCCCCCCCOc1cccc(C(=O)O)c1)C(=O)O)C(=O)N[C@@H](CCCCNC(=O)COCCOCCNC(=O)COCCOCCNC(=O)CC[C@H](NC(=O)CCCCCCCCCOc1cccc(C(=O)O)c1)C(=O)O)C(=O)O)C(C)C [Example 15, N{Epsilon-36}-[2-[2-[2-[[2-[2-[2-[[(4S)-4-carboxy-4-[10-(3-carboxyphenoxy)decanoylamino]butanoyl]amino]ethoxy]ethoxy]acetyl]amino]ethoxy]ethoxy]acetyl], N{Epsilon-37}-[2-[2-[2-[[2-[2-[2-[[(4S)-4-carboxy-4-[10-(3-carboxyphenoxy)decanoylamino]butanoyl]amino]ethoxy]ethoxy]acetyl]amino]ethoxy]ethoxy]acetyl]-[Aib8,Glu22,Arg26,Arg34,Lys36,Lys37]-GLP-1-(7-37)-peptide]	44 pM	144 h	–	–	–	–	EC50 (human GLP-1 receptor [1]; EC50/pM (0% HSA), 0% HSA): 6.1 pM; half-life [3]: 111 h
CC[C@H](C)[C@H](NC(=O)[C@H](Cc1ccccc1)NC(=O)[C@H](CCC(=O)O)NC(=O)[C@H](CCCNC(=N)N)NC(=O)[C@H](C)NC(=O)[C@H](C)NC(=O)[C@H](CCC(N)=O)NC(=O)[C@H](CCC(=O)O)NC(=O)[C@H](CCC(=O)O)NC(=O)[C@H](CC(C)C)NC(=O)[C@H](Cc1ccc(O)cc1)NC(=O)[C@H](CO)NC(=O)[C@H](CO)NC(=O)[C@@H](NC(=O)[C@H](CC(=O)O)NC(=O)[C@H](CO)NC(=O)[C@@H](NC(=O)[C@H](Cc1ccccc1)NC(=O)[C@@H](NC(=O)CNC(=O)[C@H](CCC(=O)O)NC(=O)C(C)(C)NC(=O)[C@@H](N)Cc1c[nH]cn1)[C@@H](C)O)[C@@H](C)O)C(C)C)C(=O)N[C@@H](C)C(=O)N[C@@H](Cc1c[nH]c2ccccc12)C(=O)N[C@@H](CC(C)C)C(=O)N[C@H](C(=O)N[C@@H](CCCNC(=N)N)C(=O)NCC(=O)N[C@@H](CCCCNC(=O)COCCOCCNC(=O)COCCOCCNC(=O)CC[C@H](NC(=O)CCCCCCCCCCCCC(=O)O)C(=O)O)C(=O)N[C@@H](CCCCNC(=O)COCCOCCNC(=O)COCCOCCNC(=O)CC[C@H](NC(=O)CCCCCCCCCCCCC(=O)O)C(=O)O)C(=O)O)C(C)C [Example 5, N{Epsilon-36}-[2-[2-[2-[[2-[2-[2-[[(4S)-4-carboxy-4-(13-carboxytridecanoylamino)butanoyl]amino]ethoxy]ethoxy]acetyl]amino]ethoxy]ethoxy]acetyl], N{Epsilon-37}-[2-[2-[2-[[2-[2-[2-[[(4S)-4-carboxy-4-(13-carboxytridecanoylamino)butanoyl]amino]ethoxy]ethoxy]acetyl]amino]ethoxy]ethoxy]acetyl]-[Aib8,Glu22,Arg26,Arg34,Lys36,Lys37]-GLP-1-(7-37)-peptide]	22 pM	99 h	–	–	–	–	IC50 (human GLP-1 receptor [4]; read-out: IC50/nM (low HSA)): 0.2 nM; EC50 (human GLP-1 receptor [1]; [10]): 1.1 pM
CC[C@H](C)[C@H](NC(=O)[C@H](Cc1ccccc1)NC(=O)[C@H](CCC(=O)O)NC(=O)[C@H](CCCNC(=N)N)NC(=O)[C@H](C)NC(=O)[C@H](C)NC(=O)[C@H](CCC(N)=O)NC(=O)[C@H](CCC(=O)O)NC(=O)[C@H](CCC(=O)O)NC(=O)[C@H](CC(C)C)NC(=O)[C@H](Cc1ccc(O)cc1)NC(=O)[C@H](CO)NC(=O)[C@H](CO)NC(=O)[C@@H](NC(=O)[C@H](CC(=O)O)NC(=O)[C@H](CO)NC(=O)[C@@H](NC(=O)[C@H](Cc1ccccc1)NC(=O)[C@@H](NC(=O)CNC(=O)[C@H](CCC(=O)O)NC(=O)C(C)(C)NC(=O)[C@@H](N)Cc1c[nH]cn1)[C@@H](C)O)[C@@H](C)O)C(C)C)C(=O)N[C@@H](C)C(=O)N[C@@H](Cc1c[nH]c2ccccc12)C(=O)N[C@@H](CC(C)C)C(=O)N[C@H](C(=O)N[C@@H](CCCNC(=N)N)C(=O)NCC(=O)N[C@@H](CCCCNC(=O)COCCOCCNC(=O)COCCOCCNC(=O)COCCOCCNC(=O)COCCOCCNC(=O)CC[C@H](NC(=O)CCCCCCCCCCCCC(=O)O)C(=O)O)C(=O)N[C@@H](CCCCNC(=O)COCCOCCNC(=O)COCCOCCNC(=O)COCCOCCNC(=O)COCCOCCNC(=O)CC[C@H](NC(=O)CCCCCCCCCCCCC(=O)O)C(=O)O)C(=O)O)C(C)C [Example 20]	5.8 pM	–	–	–	–	–	EC50 (human GLP-1 receptor [1]; [10]): 2.7 pM; PD in pig, food intake (% of vehicle) for hours 0-24 ([5]; single s.c. dose 3 nmol/kg, 0-24 h, NS = not significantly different from vehicle): 10 % of vehicle; PD in pig, food intake (% of vehicle) for hours 24-48 ([5]; single s.c. dose 3 nmol/kg, 24-48 h, NS = not significantly different from vehicle): 18 % of vehicle; PD in pig, food intake (% of vehicle) for hours 48-72 ([5]; single s.c. dose 3 nmol/kg, 48-72 h, NS = not significantly different from vehicle): 65 % of vehicle; PD in pig, food intake (% of vehicle) for hours 72-96 ([5]; single s.c. dose 3 nmol/kg, 72-96 h, NS = not significantly different from vehicle): 81^NS % of vehicle; reduction in food intake (in words) ([5]; single s.c. injection in pigs): largest reduction in food intake
CC[C@H](C)[C@H](NC(=O)[C@H](Cc1ccccc1)NC(=O)[C@H](CCC(=O)O)NC(=O)[C@H](CCCNC(=N)N)NC(=O)[C@H](C)NC(=O)[C@H](C)NC(=O)[C@H](CCC(N)=O)NC(=O)[C@H](CCC(=O)O)NC(=O)[C@H](CCC(=O)O)NC(=O)[C@H](CC(C)C)NC(=O)[C@H](Cc1ccc(O)cc1)NC(=O)[C@H](CO)NC(=O)[C@H](CO)NC(=O)[C@@H](NC(=O)[C@H](CC(=O)O)NC(=O)[C@H](CO)NC(=O)[C@@H](NC(=O)[C@H](Cc1ccccc1)NC(=O)[C@@H](NC(=O)CNC(=O)[C@H](CCC(=O)O)NC(=O)C(C)(C)NC(=O)[C@@H](N)Cc1c[nH]cn1)[C@@H](C)O)[C@@H](C)O)C(C)C)C(=O)N[C@@H](C)C(=O)N[C@@H](Cc1c[nH]c2ccccc12)C(=O)N[C@@H](CC(C)C)C(=O)N[C@H](C(=O)N[C@@H](CCC(N)=O)C(=O)NCC(=O)N[C@@H](CCCCNC(=O)COCCOCCNC(=O)COCCOCCNC(=O)CC[C@H](NC(=O)CCCCCCCCCCOc1ccc(C(=O)O)cc1)C(=O)O)C(=O)N[C@@H](CCCCNC(=O)COCCOCCNC(=O)COCCOCCNC(=O)CC[C@H](NC(=O)CCCCCCCCCCOc1ccc(C(=O)O)cc1)C(=O)O)C(=O)O)C(C)C [Example 7] (H-H[Aib]EGTFTSDVSSYLEEQAAREFIAWLVQGK([AEEA-AEEA-γGlu-Undecanoyl(11-OPh(4-COOH))])K([AEEA-AEEA-γGlu-Undecanoyl(11-OPh(4-COOH))])-OH; N-terminus and C-terminus assumed)	143 pM	107 h	–	–	–	–	IC50 (human GLP-1 receptor [4]; IC50/nM (low HSA)): 0.47 nM; EC50 (human GLP-1 receptor [1]; EC50/pM (0% HSA), 0% HSA): 1.5 pM
H[Aib]EGTFTSDVSSYLEEQAAREFIAWLVRGK([AEEA-AEEA-γGlu-Decanoyl(10-O(3-COOH-Ph))])K([AEEA-AEEA-γGlu-Decanoyl(10-O(3-COOH-Ph))]) [GLP-1 derivative of Example 15]	–	–	0.38 nM	126 nM	6.1 pM	44 pM	–
H[Aib]EGTFTSDVSSYLEEQAAREFIAWLVRGKK (not fully specified (residues 30, 31)) [GLP-1 derivative of Example 1]	–	–	0.21 nM	135 nM	1.2 pM	136 pM	–
HGEGTFTSDVSSYLEEQAAREFIAWLVRGK([AEEA-AEEA-γGlu-Undecanoyl(11-OPh(4-COOH))])K([AEEA-AEEA-γGlu-Undecanoyl(11-OPh(4-COOH))]) [GLP-1 derivative of Example 17]	–	–	0.9 nM	536 nM	14 pM	199 pM	–
H[Aib]EGTFTSDVSSYLEEQAAREFIAWLVRGK([AEEA-AEEA-AEEA-AEEA-γGlu-C14 diacid])K([AEEA-AEEA-AEEA-AEEA-γGlu-C14 diacid]) [GLP-1 derivative of Example 20]	–	–	0.81 nM	–	2.7 pM	5.8 pM	–
H[Aib]EGTFTSDVSSYLEEQAAREFIAWLVRGK([AEEA-AEEA-γGlu-γGlu-C14 diacid])K([AEEA-AEEA-γGlu-γGlu-C14 diacid]) [GLP-1 derivative of Example 21]	–	–	0.42 nM	89 nM	5.6 pM	13 pM	–
H[Aib]EGTFTSDVSSYLEEQAAREFIEWLVRGK([AEEA-AEEA-γGlu-Decanoyl(10-O(3-COOH-Ph))])K([AEEA-AEEA-γGlu-Decanoyl(10-O(3-COOH-Ph))]) [GLP-1 derivative of Example 27]	–	–	0.66 nM	478 nM	13 pM	105 pM	–
